Substitutions are numbered along the chain they refer to. Read-outs that look alike come from different tables or passages of the source.
B1: Anti-FAM19A5 (P2-A03) (antibody, V domains shown)
VH: QSVEESGGRLVTPGTPLTLTCTVSGFSLNNYDMSWVRQAPGKGLEYIGFMDTDGSAYYATWAKGRFTISRTSTTVDLKMTSPTTEDTATYFCARRGSSYYGGIDIWGPGTPVTVSL
VL: ELDLTQTPASVSEPVGGTVTIKCQASQSIGGNLAWYQQKPGQPPKLLIYRASTLASGVPSRFKGSGSGTDFTLTISDLECADAATYYCQSPAYDPAAYVGNAFGGGTELEIL
notes: Only variable domains are tied to the name
B2: Anti-FAM19A5 (13B4) (antibody, V domains shown)
VH: QVQLQESGPGLVKPSGTLSLNCAVSGGSISSSNWWSWVRQPPGKGLEWIGEIYHGGTTNYNPSLKGRVTMSVDKTKNQFSLRLSSVTAVDTAVYYCARWQLVGGLDVWGQGTTVTVSS
VL: SYELTQPLSVSVSPGQTASITCSGDKLGNVYASWYQQKPGQSPTLVIYQDNKRPSGIPERFSGSNSGKTATLTISGTQALDEADYYCQAWDSSTAVFGGGTKLTVL
notes: as for B1

Columns and labels:
[1] = biological target: T1, FAM19A5-M1; test: ELISA on phage-displayed FAM19A5 mutants; y axis without label; no blank in the panel, lowest bars about 0.05
T1 construct: also called FAM19A5 mutant M1
T1 FAM19A5 mutant: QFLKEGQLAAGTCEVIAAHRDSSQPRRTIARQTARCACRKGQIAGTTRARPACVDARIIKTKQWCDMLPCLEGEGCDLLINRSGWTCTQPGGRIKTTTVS

[2] = biological target: T2, FAM19A5-M5; test: as above
T2 construct: also called FAM19A5 mutant M5
T2 FAM19A5 mutant: T1 FAM19A5 mutant with V15I, I16V, A17T, A18L, H19D, A49N, R50K, A52S

[3] = biological target: T3, FAM19A5-M2; test: as above
T3 construct: also called FAM19A5 mutant M2
T3 FAM19A5 mutant: T1 FAM19A5 mutant with V15I, I16V, A17T, A18L, H19D, D21C, S22C, S23N, Q24K, P25N

[4] = biological target: T4, FAM19A5-M4; test: as above
T4 construct: also called FAM19A5 mutant M4
T4 FAM19A5 mutant: T1 FAM19A5 mutant with V15I, I16V, A17T, A18L, H19D, A34V, R35K, A37S, R39F, K40P

[5] = biological target: T5, FAM19A5-M3; test: as above
T5 construct: also called FAM19A5 mutant M3
T5 FAM19A5 mutant: T1 FAM19A5 mutant with V15I, I16V, A17T, A18L, H19D, R27I, T28E, I29E, A30R, R31S

[6] = biological target: T6, FAM19A5 mutant M6 (human); test: ELISA on phage-displayed FAM19A5 mutants; y axis without label
T6 construct: FAM19A5 with region 6 replaced by the consensus of FAM19A1-4; The entry already carries the changes
T6 chain: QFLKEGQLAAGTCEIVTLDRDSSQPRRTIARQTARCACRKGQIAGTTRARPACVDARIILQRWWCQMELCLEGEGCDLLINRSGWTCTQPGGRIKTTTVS

[7] = biological target: T7, FAM19A5 mutant M7 (human); test: as above
T7 construct: FAM19A5 with region 7 replaced by the consensus of FAM19A1-4; The entry already carries the changes
T7 chain: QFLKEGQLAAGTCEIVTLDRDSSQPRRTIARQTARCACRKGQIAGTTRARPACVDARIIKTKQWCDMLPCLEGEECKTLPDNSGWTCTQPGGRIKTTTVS

[8] = biological target: T8, FAM19A5 mutant M8 (human); test: as above
T8 construct: FAM19A5 with region 8 replaced by the consensus of FAM19A1-4; The entry already carries the changes
T8 chain: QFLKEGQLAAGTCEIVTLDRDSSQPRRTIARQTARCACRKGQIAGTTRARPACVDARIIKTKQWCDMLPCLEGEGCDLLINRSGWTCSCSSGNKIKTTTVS

[9] = biological target: T1, FAM19A5-M1; test: ELISA on phage-displayed FAM19A5 mutants; y axis without label; no blank in the panel
[10] = biological target: T2, FAM19A5-M5; test: as above
[11] = biological target: T3, FAM19A5-M2; test: as above
[12] = biological target: T7, FAM19A5 mutant M7; test: as above
[13] = biological target: T4, FAM19A5-M4; test: as above
[14] = biological target: T5, FAM19A5-M3; test: as above
[15] = biological target: T6, FAM19A5 mutant M6; test: ELISA on phage-displayed FAM19A5 mutants; y axis without label
[16] = biological target: T8, FAM19A5 mutant M8; test: as above

binding result [1]	binding result [2]	binding result [3]	binding result [4]	binding result [5]	binding result [6]	binding result [7]	binding result [8]	binding result [9]	binding result [10]	binding result [11]	binding result [12]	binding result [13]	binding result [14]	binding result [15]	binding result [16]	Binder
binds	binds	binds	binds	binds	no binding	no binding	no binding									B1
								binds	binds	binds	binds	binds	binds	no binding	no binding	B2
